Test results: patent US20230357411A1
Substitutions are numbered along the chain they refer to.

B1: humanized anti-TrkA monoclonal antibody H1L1-IgG4 (antibody)
heavy: EVQLLESGGGLVQPGGSLKLSCKASGYAFTNYWLGWMKQRPGHGLEWIGDFYPRTGNTFYNENFKGKVTLTADKSSNTAYMQLSSLTSEDSAVYLCARAGTGFDYWGQGTTLTVSSASTKGPSVFPLAPCSRSTSESTAALGCLVKDYFPEPVTVSWNSGALTSGVHTFPAVLQSSGLYSLSSVVTVPSSSLGTKTYTCNVDHKPSNTKVDKRVESKYGPPCPPCPAPEAAGGPSVFLFPPKPKDTLMISRTPEVTCVVVDVSQEDPEVQFNWYVDGVEVHNAKTKPREEQFNSTYRVVSVLTVLHQDWLNGKEYKCKVSNKGLPSSIEKTISKAKGQPREPQVYTLPPSQEEMTKNQVSLTCLVKGFYPSDIAVEWESNGQPENNYKTTPPVLDSDGSFFLYSKLTVDKSRWQEGNVFSCSVMHEALHNHYTQKSLSLSLG
light: EIVMTQSPATLSLSVGERVTLSCKASENVGGYVSWYQQKPDQSPKLLIYGASSRHTGVPDRFTGSGSETDFTLTISSVQAEDLAAYHCGQNYIYPFTFGGGTKLEIKRTVAAPSVFIFPPSDEQLKSGTASVVCLLNNFYPREAKVQWKVDNALQSGNSQESVTEQDSKDSTYSLSSTLTLSKADYEKHKVYACEVTHQGLSSPVTKSFNRGEC
B2: humanized anti-TrkA monoclonal antibody H3L1-IgG4 (antibody, V domains shown)
VH: EVQLLESGGGLVQPGGSLKLSCKASGYAFTNYWLGWMKQRPGHGLEWIGDFYPRTGNTFYNENFKGQVTMSVDKSITTAYLQWNSLKASDTAMYYCARAGTGFDYWGQGTTLTVSS
VL: EIVMTQSPATLSLSVGERVTLSCKASENVGGYVSWYQQKPDQSPKLLIYGASSRHTGVPDRFTGSGSETDFTLTISSVQAEDLAAYHCGQNYIYPFTFGGGTKLEIKR
B3: humanized anti-TrkA monoclonal antibody H3L2-IgG4 (antibody, V domains shown)
VH: B2 VH
VL: B2 VL with H55A
B4: human-mouse chimeric anti-TrkA monoclonal antibody 23E12 (H0L0-IgG4) (antibody)
heavy: B1 heavy with E1Q, L5Q, E6Q, G9A, G10E, Q13R, G16T, L18V, L20I
light: B1 light with E1S, A9K, T10S, L11M, L13M

Target: TrKA (ELISA antigen, target Human-TrKA) (human) (UniProt P04629)
Sequence (P04629 33-423 limits assumed): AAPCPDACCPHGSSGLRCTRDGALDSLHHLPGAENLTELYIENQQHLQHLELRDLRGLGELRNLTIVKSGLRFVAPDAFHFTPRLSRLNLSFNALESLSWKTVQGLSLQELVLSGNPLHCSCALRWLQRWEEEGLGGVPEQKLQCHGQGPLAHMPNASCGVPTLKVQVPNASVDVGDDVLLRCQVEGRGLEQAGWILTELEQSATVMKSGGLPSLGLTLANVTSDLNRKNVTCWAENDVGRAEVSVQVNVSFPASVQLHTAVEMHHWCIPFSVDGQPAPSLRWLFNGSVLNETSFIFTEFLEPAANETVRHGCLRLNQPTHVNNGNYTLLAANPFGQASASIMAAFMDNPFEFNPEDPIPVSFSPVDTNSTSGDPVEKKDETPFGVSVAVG
Assay: ELISA, antibody 0 to 20 µg/mL, plateau

OD450, 3:
B1
B2
B3
B4
